# Data from US20240010720A1 (IOMX THERAPEUTICS, published 2024).
# Substitutions are numbered along the chain they refer to.
# T1: His-tagged extracellular domain (ECD) of human IGSF11 (VSIG3) (human, UniProt Q5DX21 23-241)
# T1 construct: partly bought (SinoBiological 13094-H08H); also called IGSF11-HIS; HIS-IGSF11; not shown: HIS6 tag
# T1 sequence: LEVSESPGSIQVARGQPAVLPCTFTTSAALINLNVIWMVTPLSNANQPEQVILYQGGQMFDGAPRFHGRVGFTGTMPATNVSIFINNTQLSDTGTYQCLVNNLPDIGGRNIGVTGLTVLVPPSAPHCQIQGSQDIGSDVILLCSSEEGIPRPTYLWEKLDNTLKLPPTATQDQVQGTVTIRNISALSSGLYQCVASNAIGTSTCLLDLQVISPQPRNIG
# B1: A-029 (scFv format) (scFv, V domains shown)
# VH: QVQLVQSGAEVKKPGSSVKVSCKASGGTFSSYAISWVRQAPGQGLEWMGGIIPIFGTANYAQKFQGRVTITADESTGTAYMELSSLRSEDTAVYYCARSYYYYYGMDVWGQGTTVTVSS
# VL: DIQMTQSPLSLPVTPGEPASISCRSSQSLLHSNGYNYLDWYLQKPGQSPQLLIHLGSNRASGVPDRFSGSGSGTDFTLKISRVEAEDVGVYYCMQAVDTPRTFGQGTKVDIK
# notes: scFv
# B2: A-023 (scFv format) (scFv, V domains shown)
# VH: QVQLVQSGAEVKKPGSSVKVSCKASGGTFSSYAISWVRQAPGQGLEWMGGIIPIFGTANYAQKFQGRVTITADESTSTAYMELSSLRSEDTAVYYCARPKYSSGWFYYYGMDVWGQGTTVTVSS
# VL: QSVLTQPPSVSAAPGQKVTISCSGSSSNIGNNYVSWYQQLPGTAPKLLIYDNNKRPSGIPDRFSGSKSGTSATLGITGLQTGDEADYYCGTWDSSLSVVFGGGTKLTVL
# notes: scFv
# B3: A-034 (scFv format) (scFv, V domains shown)
# VH: QMQLVQSGGGLVKPGGSLRLSCAASGFTFSSYTMNWVRQAPGKGLEWVSSISSIGTYIYYADSVKGRFTISRDNAKNSLYLQMNSLRAEDTAVYYCARVLLSGSYYGYFDSWGQGTLVTVSS
# VL: QSVLTQPPSVSGAPGQRVTISCTGSSSNIGAGYDVHWYQQLPGTAPKLFIYGNSNRPSGVPDRFSGSKSGTSASLAITGLQAEDEADYYCQSYDSSLSGYVFGTGTKVTVL
# notes: scFv
# B4: A-033 (scFv format) (scFv, V domains shown)
# VH: QVQLVQSGAEVKKPGASVKVSCKASGYTFTSYGISWVRQAPGQGLEWMGWISAYNGNTNYAQKLQGRVTMTTDTSTSTAYMELRSLRSDDTAVYYCARDHSIVGATTFDYWGQGTLVTVSS
# VL: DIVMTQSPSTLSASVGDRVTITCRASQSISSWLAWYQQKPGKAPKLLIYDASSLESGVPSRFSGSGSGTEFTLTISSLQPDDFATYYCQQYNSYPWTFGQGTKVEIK
# notes: scFv
# B5: A-015 (scFv format) (scFv, V domains shown)
# VH: not shown
# VL: QPVLTQSPSASASLGASVKLTCTLSSGHTNYAIAWRQQQPGKAPRYLMLLNSDGSHTRGGGIPDRFSGSSSGAERYLTISSLQSEDEADYYCMIWHNNAWVFGGGTKLAVL
# notes: scFv
# B6: A-003 (scFv format) (scFv, V domains shown)
# VH: VQLVQSGAEVKKPGSSVKVSCKASGGTFSSYAISWVRQAPGQGLEWMGGIIPIFGTANYAQKFQGRVTITADESTSTAYMELSSLRSEDTAVYYCASPRIQLWAAGGFDYWGQGTLVTVSS
# VL: QSALTQPASVSGSPGQSITISCTGTSSDVGGYNLVSWYQQHPGKAPKLMIYDVSNRPSGVSNRFSGSKSGNTASLTISGLQAEDEADYYCSSFTTSTTLVFGGGTKLTVL
# notes: scFv
# B7: A-010 (scFv format) (scFv, V domains shown)
# VH: QVQLVQSGAEVKKPGASVKVSCKASGYTFTSYGISWVRQAPGQGLEWMGWISAYNGNTNYAQKLQGRVTMTTDTSTSTAYMELRSLRSDDTAVYYCARVPAWSGQFDYWGQGTLVTVSS
# VL: QSALTQPASVSGSPGQSITISCTGSSSDVGGYNYVSWYQQYPGKAPKLMIYDVRSRPSGVSNRFSGSKSGNTASLTISGLQAEDEADYYCTSYTSSNTLVIFGGGTKVTVL
# notes: scFv
# B8: A-024 (scFv format) (scFv, V domains shown)
# VH: QMQLVQSGAEVKKPGSSVKVSCKASGGTFSSYAISWVRQAPGQGLEWMGWISAYNGNTNYAQKLQGRVTMTTDTSTSTAYMELRSLRSDDTAVYYCASLGSYGYTGAFDIWGQGTMATVSS
# VL: B7 VL with S25T, Y41H, D52E, R54S, S55N, T91S, N97S, I101V, V108L
# B9: A-022 (scFv format) (scFv, V domains shown)
# VH: EVQLLESGPGLVKPSQTLSLTCTVSGGSISSGGYYWSWIRQHPGKGLEWIGYIYYSGSTYYNPSLKSRVTISVDTSKNQFSLKLSSVTAADTAVYYCARASRSTDYYFDYWGQGTLVTVSS
# VL: QPGLTQPPSMSYGLGQTATLTCTGNRNNIGDQGAAWLQQHQGHPPKLLSYRNNNGPSGISERLSASRSGNTASLTISGLQPEDEADYYCSAWDSSLRAWVFGGGTKLTVL
# notes: scFv
# B10: A-011 (scFv format) (scFv, V domains shown)
# VH: QVQLVESGGGVVQPGRSLRLSCAASGFTFSSYAMHWVRQAPGKGLEWVAVISYDGSNKYYADSVKGRFTISRDNSKNTLYLQMNSLRAEDTAVYYCAEGGALNYYGMDVWGQGTTVTVSS
# VL: SSELTQDPGVSVALGQTVRITCQGDSLRHFYATWYQQKPGQAPILVIYGKNNRPSGIPDRFSGSSSEDTASLTITGAQAEDEADYYCQSRDPRNNHLIFGGGTKLIVL
# notes: scFv
# B11: A-004 (scFv format) (scFv, V domains shown)
# VH: EVQLVESGGGLVKPGGSLRLSCAASGFTFSSYSMNWVRQAPGKGLEWVSSISSSSSYIYYADSVKGRFTISRDNAKNSLYLQMNSLRAEDTAVYYCARGQLLWFGESALIDAFDIWGQGTMVTVSS
# VL: EIVLTQSPSSLSASVGDRVTITCRASQSISSYLNWYQLKPGKAPKLLIYAASILQSGVPSRFSGSGSGTDFTLTISSLQPEDFAAYYCQQSYSTPRTFGQGTKLEIK
# notes: scFv
# B12: A-016 (scFv format) (scFv, V domains shown)
# VH: QVQLQESGAEVKKPGASVKVSCKASGYTFTGYYMHWVRQAPGQGLEWMGGIIPIFGTANYAQKFQGRVTITADESTSTAYMELSSLRSEDTAVYYCAGAGMELTRSGAYYYYGMDVWGQGTTVTVSS
# VL: QSALTQPASVSGSPGQSITISCTGTSSDIGGYTFVSWYQQHPGKAPKVMIHDVNNRPSGISNRFSGSKSGNTASLTISGLQAEDEADYYCSSVTSTNTYVFGTGTKVTVL
# notes: scFv
# B13: A-035 (scFv format) (scFv, V domains shown)
# VH: QVQLVQSGAEVKKPGASVKVSCKASGYTFTGYYMHWVRQAPGQGLEWMGWINPNSGNTGYAQKFQGRVTMTRNTSISTAYMELSSLRSEDTAVYYCARGRLERGYWYFDLWGRGTLVTVSS
# VL: NFMLTQPHSVSESPGRTVTISCTRSSGSITSNYVQWYQQRPGSAPTILIYEDKERPSEVPDRFSGSIDISSNSASLTISGLKTEDEADYYCQSYGGTSQGVLFGGGTKVTVL
# notes: scFv
# B14: A-025 (scFv format) (scFv, V domains shown)
# VH: QVQLVQSGAEVKKPGSSVKVSCKASGGTFSSYAISWVRQAPGQGLEWMGGIIPIFGTANYAQKFQGRVTITADESTSTAYMELTSLRSEDTAVYYCARGGWLRQNWFDPWGQGTLVTVSS
# VL: SSELTQDPAVSVALGQTVRITCQGDSLRSYYASWYQQKPGQAPVLVIYGKNNRPSGIPDRFSGSSSGNTASLTITGAQAEDEADYYCNSRDSSGNHPRVFGGGTKLTVL
# notes: scFv
# B15: A-009 (scFv format) (scFv, V domains shown)
# VH: B14 VH with T84S, G100R, W101G, L102F, R103G, Q104E, N105L, W106Y, P109Y
# VL: ETTLTQSPATLSVSPGERATLSCRASQGVRSNIAWYQQKPGQAPRLLIYDSSTRATGIPARFSGSGSGTEFTLTISSLQSEDFAVYSCQQYKNWPRTFGQGTKVEIK
# notes: scFv
# B16: A-027 (scFv format) (scFv, V domains shown)
# VH: QVQLVQSGAEVKKPGSSVKVSCKASGGTFSSYAISWVRQAPGQGLEWMGGIIPIFGTANYAQKFQGRVTITADKSTSTAYMELSSLRSEDTAVYYCARARGSTWGYFDYWGQGTLVTVSS
# VL: EIVLTQSPASLSLSPGERVTLSCRASQSVSNYLAWYQQKPGQAPRLLIYDASNRATGIPARFSGSGSGTDFTLTISSLEPEDFAVYYCQQRDNWPLTFGGGTKVEIK
# notes: scFv
# B17: A-023 (IgG1 format) (antibody, V domains shown)
# VH: B2 VH
# VL: B2 VL
# notes: human IgG1 format
# B18: A-033 (IgG1 format) (antibody, V domains shown)
# VH: B4 VH
# VL: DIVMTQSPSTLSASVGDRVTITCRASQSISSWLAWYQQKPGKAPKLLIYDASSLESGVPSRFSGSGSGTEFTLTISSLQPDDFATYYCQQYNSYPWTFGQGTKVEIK
# notes: human IgG1 format
# B19: A-001 (IgG1 format) (antibody, V domains shown)
# VH: EVQLVESGGGLVKPGGSLRLSCAASGFTFSSYSMNWVRQAPGKGLEWVSSISSSSSYIYYADSVKGRFTISRDNAKNSLYLQMNSLRAEDTAVYYCVRSIIVQALGITSVFDIWGQGTMVTVSS
# VL: AIRLTQSPSSLSASVGDRVTISCRASQIISNHLNWYQQKPGKAPKLLIYAASRLQTGVPSRFSGSGSETDYTLTISSLQPEDFATYYCQQSYSNPRTFGHGTKVEIK
# notes: human IgG1 format
# B20: A-003 (IgG1 format) (antibody, V domains shown)
# VH: B6 VH
# VL: B6 VL
# notes: human IgG1 format
# B21: A-025 (IgG1 format) (antibody, V domains shown)
# VH: B14 VH
# VL: B14 VL
# notes: human IgG1 format
# Molecular target: T2, Streptavidin (UniProt P22629 37-163, limits assumed)
# T2 construct: also called negative antigen; irrelevant antigen
# Assay: ELISA, scFv
# T2 sequence (P22629 37-163 limits assumed): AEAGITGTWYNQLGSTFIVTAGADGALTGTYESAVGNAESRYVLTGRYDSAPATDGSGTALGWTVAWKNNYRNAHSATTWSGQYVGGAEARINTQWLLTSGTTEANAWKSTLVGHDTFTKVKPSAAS
row,Binder,binding result
1,B1,no binding (tested: <0.025 or <0.05 RFU)
2,B2,no binding (tested: <0.025 or <0.05 RFU)
3,B3,no binding (tested: <0.025 or <0.05 RFU)
4,B4,no binding (tested: <0.025 or <0.05 RFU)
5,B5,no binding (tested: <0.025 or <0.05 RFU)
6,B6,no binding (tested: <0.025 or <0.05 RFU)
7,B7,no binding (tested: <0.025 or <0.05 RFU)
8,B8,no binding (tested: <0.025 or <0.05 RFU)
9,B9,no binding (tested: <0.025 or <0.05 RFU)
10,B10,no binding (tested: <0.025 or <0.05 RFU)
11,B11,no binding (tested: <0.025 or <0.05 RFU)
12,B12,no binding (tested: <0.025 or <0.05 RFU)
13,B13,no binding (tested: <0.025 or <0.05 RFU)
14,B14,no binding (tested: <0.025 or <0.05 RFU)
15,B15,no binding (tested: <0.025 or <0.05 RFU)
16,B16,no binding (tested: <0.025 or <0.05 RFU)

# Molecular target: T1, His-tagged extracellular domain (ECD) …
# Assay: ELISA EC50 grade, IgG1
row,Binder,EC50
1,B17,0.05 to 1 nM
2,B18,0.02 to 0.05 nM
3,B19,< 0.02 nM
4,B20,0.05 to 1 nM
5,B21,0.05 to 1 nM
